Assay results as given in paper PMC10068764.

Target: CA tri-hexamer_(center) (HIV-1)
Assay: ITC

Question: For “NUP153^1411–1475/1425–1464△ peptide (25 aa) (from UniProt P49790 1411-1475)”, which Kd is on record?
Answer: The Kd was 0.87 µM.
